Residue numbers refer to the chain shown, from its start.
How the values were obtained:
Conditions in all cases: both partners purified
[1] = molecular target: T1, ROD–Zwilch–ZW10 (RZZ) complex (UniProt P50748 1-2209; Q9H900 1-591; O43264 1-779); test: SEC; Superose 6 5/150; RZZ 2 µM, pre-farnesylated mCh-Spindly construct 6 µM
T1 construct: ROD; Zwilch; ZW10; also called mCherry-RZZ; copies: + +

Spindly^250–605 = molecular target: T2, Spindly^250–605 (human, UniProt Q96EA4 250-605); test: SEC; Spindly N-terminal and C-terminal fragments mixed, 10 µM each; 4°C, Spindly buffer; fractions on SDS-PAGE
T2 construct: also called CC2 and CC3; source: TnAO38 insect cells (baculovirus), purified (HisTrap, Resource Q, Superdex 200)
T2 sequence (looked up): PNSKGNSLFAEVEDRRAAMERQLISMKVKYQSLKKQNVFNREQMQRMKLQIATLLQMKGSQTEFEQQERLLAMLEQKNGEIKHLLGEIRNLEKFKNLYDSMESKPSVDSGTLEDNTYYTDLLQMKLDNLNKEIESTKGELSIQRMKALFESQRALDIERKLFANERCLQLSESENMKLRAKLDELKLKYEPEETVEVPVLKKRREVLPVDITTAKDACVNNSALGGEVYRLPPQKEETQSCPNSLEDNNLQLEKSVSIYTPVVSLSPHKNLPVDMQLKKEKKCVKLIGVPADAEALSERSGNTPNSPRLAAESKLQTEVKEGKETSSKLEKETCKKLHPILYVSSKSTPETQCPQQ

[2] = molecular target: T3, mCherry-tagged full-length Spindly (^mChSpindly^FL) (human, UniProt Q96EA4 1-605); test: pull-down; GST or GST-LIC2 bait 4 µM on glutathione beads, mCh-Spindly preys 8 µM, 4°C 1 h, Spindly buffer; eluted with glutathione; mCherry fluorescence of the gel band quantified against Spindly FL
T3 construct: also called ^mChSpindly^WT; Spindly^WT; source: E. coli BL21 CodonPlus, purified (HisTrap, Resource Q, Superdex 200); not shown: mCherry, N-terminal, kept
T3 sequence (looked up): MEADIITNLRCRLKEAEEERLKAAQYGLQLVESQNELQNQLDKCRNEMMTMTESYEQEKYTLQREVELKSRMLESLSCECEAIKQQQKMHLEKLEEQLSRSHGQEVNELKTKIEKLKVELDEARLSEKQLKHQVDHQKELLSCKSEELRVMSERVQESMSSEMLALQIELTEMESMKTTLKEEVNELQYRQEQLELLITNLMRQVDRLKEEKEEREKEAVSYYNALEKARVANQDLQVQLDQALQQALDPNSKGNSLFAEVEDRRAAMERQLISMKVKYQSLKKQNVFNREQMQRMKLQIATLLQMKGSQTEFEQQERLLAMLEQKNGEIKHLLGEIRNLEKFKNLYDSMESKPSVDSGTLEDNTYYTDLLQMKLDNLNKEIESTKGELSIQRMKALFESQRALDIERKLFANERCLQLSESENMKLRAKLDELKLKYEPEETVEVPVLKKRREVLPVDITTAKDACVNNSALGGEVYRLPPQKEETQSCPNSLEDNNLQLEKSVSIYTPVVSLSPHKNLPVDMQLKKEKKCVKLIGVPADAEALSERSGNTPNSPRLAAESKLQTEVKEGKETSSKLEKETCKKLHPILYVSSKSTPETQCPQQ

[3] = molecular target: T4, ^mChSpindly^CC2* (R295E-K297E) (human, UniProt Q96EA4 1-605, R295E | K297E); test: as above
T4 construct: source: E. coli BL21 CodonPlus, purified (HisTrap, Resource Q, Superdex 200); not shown: mCherry, N-terminal, kept
T4 sequence (looked up): T3 sequence (looked up) with R295E, K297E

^mChSpindly^ΔRV = molecular target: T5, ^mChSpindly^ΔRV (human, UniProt Q96EA4 1-605, ΔRV (residues R154–V155)); test: as above
T5 construct: also called ^mChSpindly^∆RV; source: E. coli BL21 CodonPlus, purified (HisTrap, Resource Q, Superdex 200); not shown: mCherry, N-terminal, kept
T5 sequence (looked up): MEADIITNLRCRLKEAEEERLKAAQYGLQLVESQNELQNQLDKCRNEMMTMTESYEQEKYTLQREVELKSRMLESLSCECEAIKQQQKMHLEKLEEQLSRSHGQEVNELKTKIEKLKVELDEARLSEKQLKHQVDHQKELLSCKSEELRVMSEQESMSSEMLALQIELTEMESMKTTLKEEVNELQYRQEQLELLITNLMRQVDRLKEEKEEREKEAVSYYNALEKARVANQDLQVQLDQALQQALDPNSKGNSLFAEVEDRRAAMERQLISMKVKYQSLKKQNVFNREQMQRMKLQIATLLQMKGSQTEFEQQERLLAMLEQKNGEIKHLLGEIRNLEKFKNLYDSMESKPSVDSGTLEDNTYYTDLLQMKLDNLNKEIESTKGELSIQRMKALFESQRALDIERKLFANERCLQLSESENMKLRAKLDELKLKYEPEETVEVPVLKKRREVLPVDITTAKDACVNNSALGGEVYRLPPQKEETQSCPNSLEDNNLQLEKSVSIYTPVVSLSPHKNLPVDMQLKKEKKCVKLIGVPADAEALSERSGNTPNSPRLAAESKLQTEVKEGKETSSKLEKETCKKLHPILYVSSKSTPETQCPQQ

T1 sequence (P50748 whole entry, chain 1 of 3): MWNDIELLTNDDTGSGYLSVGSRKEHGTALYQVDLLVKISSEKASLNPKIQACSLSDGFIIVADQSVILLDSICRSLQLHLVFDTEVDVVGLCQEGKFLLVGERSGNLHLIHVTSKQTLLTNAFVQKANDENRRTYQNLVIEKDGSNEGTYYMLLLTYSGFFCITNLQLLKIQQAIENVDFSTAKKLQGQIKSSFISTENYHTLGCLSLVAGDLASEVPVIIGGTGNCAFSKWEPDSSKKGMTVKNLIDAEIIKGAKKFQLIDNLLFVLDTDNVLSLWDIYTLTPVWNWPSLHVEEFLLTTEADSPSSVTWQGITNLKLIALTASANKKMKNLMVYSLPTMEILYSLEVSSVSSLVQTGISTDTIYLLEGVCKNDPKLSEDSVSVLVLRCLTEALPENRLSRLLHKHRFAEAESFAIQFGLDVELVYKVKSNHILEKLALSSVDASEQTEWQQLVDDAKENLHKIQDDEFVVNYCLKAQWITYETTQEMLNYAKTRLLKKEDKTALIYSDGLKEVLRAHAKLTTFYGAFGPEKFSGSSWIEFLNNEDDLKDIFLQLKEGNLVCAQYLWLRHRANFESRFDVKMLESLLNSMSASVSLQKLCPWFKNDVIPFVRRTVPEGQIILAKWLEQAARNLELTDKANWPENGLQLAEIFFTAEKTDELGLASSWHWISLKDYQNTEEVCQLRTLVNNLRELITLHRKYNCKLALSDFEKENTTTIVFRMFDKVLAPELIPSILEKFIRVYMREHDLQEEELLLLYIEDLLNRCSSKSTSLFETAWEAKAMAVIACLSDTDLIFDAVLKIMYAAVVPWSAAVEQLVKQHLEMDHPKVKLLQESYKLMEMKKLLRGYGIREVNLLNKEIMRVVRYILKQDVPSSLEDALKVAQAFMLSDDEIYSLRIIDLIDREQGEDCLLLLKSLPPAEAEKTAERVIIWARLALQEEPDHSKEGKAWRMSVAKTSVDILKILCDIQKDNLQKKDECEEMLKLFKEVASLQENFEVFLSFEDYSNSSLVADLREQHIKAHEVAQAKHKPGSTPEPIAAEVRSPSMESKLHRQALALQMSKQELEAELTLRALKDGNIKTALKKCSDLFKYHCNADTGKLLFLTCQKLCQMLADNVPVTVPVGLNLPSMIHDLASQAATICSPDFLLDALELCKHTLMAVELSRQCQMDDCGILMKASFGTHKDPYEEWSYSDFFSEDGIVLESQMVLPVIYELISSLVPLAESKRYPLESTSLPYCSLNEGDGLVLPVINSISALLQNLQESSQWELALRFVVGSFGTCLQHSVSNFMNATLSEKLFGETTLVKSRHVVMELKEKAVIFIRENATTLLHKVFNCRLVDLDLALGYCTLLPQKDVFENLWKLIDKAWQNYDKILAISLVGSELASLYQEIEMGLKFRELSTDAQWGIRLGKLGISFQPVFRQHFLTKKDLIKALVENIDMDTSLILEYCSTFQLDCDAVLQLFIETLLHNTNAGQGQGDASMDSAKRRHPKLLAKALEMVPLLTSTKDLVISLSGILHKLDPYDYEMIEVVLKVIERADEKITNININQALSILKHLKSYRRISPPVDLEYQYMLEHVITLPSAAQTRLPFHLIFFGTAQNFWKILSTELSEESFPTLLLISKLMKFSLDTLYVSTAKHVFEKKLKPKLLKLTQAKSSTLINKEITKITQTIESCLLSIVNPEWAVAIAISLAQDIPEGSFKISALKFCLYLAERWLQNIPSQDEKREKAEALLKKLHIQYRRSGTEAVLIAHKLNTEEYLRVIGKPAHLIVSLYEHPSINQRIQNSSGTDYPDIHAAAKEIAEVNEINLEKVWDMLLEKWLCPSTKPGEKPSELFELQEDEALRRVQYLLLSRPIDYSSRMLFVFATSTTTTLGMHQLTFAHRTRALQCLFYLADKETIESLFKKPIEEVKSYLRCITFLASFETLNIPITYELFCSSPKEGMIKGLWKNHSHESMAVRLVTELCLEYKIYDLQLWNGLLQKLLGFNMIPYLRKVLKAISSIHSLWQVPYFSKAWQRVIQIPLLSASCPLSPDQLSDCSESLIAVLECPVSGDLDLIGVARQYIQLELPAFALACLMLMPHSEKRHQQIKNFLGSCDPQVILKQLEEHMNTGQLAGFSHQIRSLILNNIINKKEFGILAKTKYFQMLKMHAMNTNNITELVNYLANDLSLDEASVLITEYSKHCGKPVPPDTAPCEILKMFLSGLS
T1 sequence (Q9H900 whole entry, chain 2 of 3): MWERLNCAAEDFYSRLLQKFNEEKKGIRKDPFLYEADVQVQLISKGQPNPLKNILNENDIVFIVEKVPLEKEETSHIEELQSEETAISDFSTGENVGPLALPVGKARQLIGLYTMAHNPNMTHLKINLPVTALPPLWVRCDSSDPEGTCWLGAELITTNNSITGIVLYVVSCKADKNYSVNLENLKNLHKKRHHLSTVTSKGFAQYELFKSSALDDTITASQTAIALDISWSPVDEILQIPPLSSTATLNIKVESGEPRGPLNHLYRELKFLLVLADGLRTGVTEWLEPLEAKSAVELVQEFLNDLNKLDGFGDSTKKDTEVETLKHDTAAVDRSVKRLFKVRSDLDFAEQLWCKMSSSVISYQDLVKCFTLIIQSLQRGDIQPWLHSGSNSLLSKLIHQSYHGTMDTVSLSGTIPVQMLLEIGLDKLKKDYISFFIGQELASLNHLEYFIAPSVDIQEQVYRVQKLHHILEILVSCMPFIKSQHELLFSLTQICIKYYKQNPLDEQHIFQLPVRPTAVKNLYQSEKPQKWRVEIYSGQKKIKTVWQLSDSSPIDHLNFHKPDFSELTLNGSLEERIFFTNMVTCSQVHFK
T1 sequence (O43264 whole entry, chain 3 of 3): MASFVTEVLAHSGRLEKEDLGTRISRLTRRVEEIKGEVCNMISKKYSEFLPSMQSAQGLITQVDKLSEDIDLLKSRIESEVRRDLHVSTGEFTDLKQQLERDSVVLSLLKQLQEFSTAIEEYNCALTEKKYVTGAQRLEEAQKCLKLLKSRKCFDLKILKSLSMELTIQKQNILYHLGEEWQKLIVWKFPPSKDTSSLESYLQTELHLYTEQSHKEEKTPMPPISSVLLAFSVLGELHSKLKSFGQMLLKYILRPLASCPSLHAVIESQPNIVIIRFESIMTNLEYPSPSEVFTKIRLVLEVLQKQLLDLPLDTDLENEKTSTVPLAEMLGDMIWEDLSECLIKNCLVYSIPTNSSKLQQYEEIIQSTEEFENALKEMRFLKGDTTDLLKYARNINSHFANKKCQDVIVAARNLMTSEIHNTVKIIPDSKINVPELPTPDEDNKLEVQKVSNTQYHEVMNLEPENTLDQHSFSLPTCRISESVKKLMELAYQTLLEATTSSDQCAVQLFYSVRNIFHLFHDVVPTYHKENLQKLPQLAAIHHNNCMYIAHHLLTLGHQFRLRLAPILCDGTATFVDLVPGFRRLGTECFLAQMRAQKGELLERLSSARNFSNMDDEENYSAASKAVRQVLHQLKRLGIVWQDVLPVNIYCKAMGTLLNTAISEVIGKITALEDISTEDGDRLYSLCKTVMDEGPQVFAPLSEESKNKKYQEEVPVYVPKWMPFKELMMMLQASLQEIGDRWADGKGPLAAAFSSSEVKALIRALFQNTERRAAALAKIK

B1: pre-farnesylated ^mChSpindly^CC2* (natural protein, human, UniProt Q96EA4 1-605, looked up)
chain: T3 sequence (looked up) with R295E, K297E
modifications: farnesylated (residue not given)
notes: source: E. coli BL21 CodonPlus, purified; farnesylated in vitro with farnesyltransferase; not shown: mCherry, N-terminal, kept
binding result [1]: binds

B2: Spindly^1–250 (domain or fragment, human, UniProt Q96EA4 1-250, looked up)
chain: MEADIITNLRCRLKEAEEERLKAAQYGLQLVESQNELQNQLDKCRNEMMTMTESYEQEKYTLQREVELKSRMLESLSCECEAIKQQQKMHLEKLEEQLSRSHGQEVNELKTKIEKLKVELDEARLSEKQLKHQVDHQKELLSCKSEELRVMSERVQESMSSEMLALQIELTEMESMKTTLKEEVNELQYRQEQLELLITNLMRQVDRLKEEKEEREKEAVSYYNALEKARVANQDLQVQLDQALQQALDP
notes: also called CC1; source: TnAO38 insect cells (baculovirus), purified (HisTrap, Resource Q, Superdex 200)
binding result (Spindly^250–605): binds

B3: GST-LIC2 (natural protein, human, UniProt O43237 1-492, looked up)
chain: MAPVGVEKKLLLGPNGPAVAAAGDLTSEEEEGQSLWSSILSEVSTRARSKLPSGKNILVFGEDGSGKTTLMTKLQGAEHGKKGRGLEYLYLSVHDEDRDDHTRCNVWILDGDLYHKGLLKFAVSAESLPETLVIFVADMSRPWTVMESLQKWASVLREHIDKMKIPPEKMRELERKFVKDFQDYMEPEEGCQGSPQRRGPLTSGSDEENVALPLGDNVLTHNLGIPVLVVCTKCDAVSVLEKEHDYRDEHLDFIQSHLRRFCLQYGAALIYTSVKEEKNLDLLYKYIVHKTYGFHFTTPALVVEKDAVFIPAGWDNEKKIAILHENFTTVKPEDAYEDFIVKPPVRKLVHDKELAAEDEQVFLMKQQSLLAKQPATPTRASESPARGPSGSPRTQGRGGPASVPSSSPGTSVKKPDPNIKNNAASEGVLASFFNSLLSKKTGSPGSPGAGGVQSTAKKSGQKTVLSNVQEELDRMTRKPDSMVTNSSTENEA
notes: Dynein light intermediate chain 2 (LIC2), human; GST is TEV-cleavable but was used as the handle on glutathione beads; also called GST-tagged LIC2; source: TnAO38 insect cells (baculovirus), purified (GSTrap, Superdex 200); not shown: GST, N-terminal, kept
binding result [2]: binds | binding result [3]: binds | binding result (^mChSpindly^ΔRV): binds

Source: paper PMC9481740 (The Journal of Cell Biology, 2022)
